This note sets out measurements from patent US20030113892A1.

No end group written: not given here.

Experiment [1] deals with rat brain synaptosomes (voltage-gated sodium channel, receptor site 3) (rat).
Experiment [2] shares this target. As to the kind of experiment: cell-based or functional assay.

Take uctoxin (peptide): in experiment [1], the EC50 came to 60 nM. In experiment [2], the enhancement of [3H] BTX binding to rat brain synaptosomes came out at 2 fold.

B1: birtoxin (peptide)
chain: ADVPGNYPLDKDGNTYKCFLLGGNEECLNVCKLHGVQYGYCYASKCWCEYLEDDKDVS
modifications: also: three disulfide bridges, pairings not given here
Consider B1, for which the EC50 in experiment [1] worked out at 5 nM. In addition, the enhancement of [3H] BTX binding to rat brain synaptosomes in experiment [2] was 4.32 fold.
